US20240261333A1 (published 2024)

How the values were obtained:
Assay in all cases: co-IP with anti-FLAG, mass spectrometry; lysate of cells with N-FLAG B3GNT2
RRP12 = target: T1, RRP12 (human, UniProt Q5JTH9-3 1-1236, limits assumed)
T1 construct: also called NP_001138586.1 (+4)
T1 sequence (looked up): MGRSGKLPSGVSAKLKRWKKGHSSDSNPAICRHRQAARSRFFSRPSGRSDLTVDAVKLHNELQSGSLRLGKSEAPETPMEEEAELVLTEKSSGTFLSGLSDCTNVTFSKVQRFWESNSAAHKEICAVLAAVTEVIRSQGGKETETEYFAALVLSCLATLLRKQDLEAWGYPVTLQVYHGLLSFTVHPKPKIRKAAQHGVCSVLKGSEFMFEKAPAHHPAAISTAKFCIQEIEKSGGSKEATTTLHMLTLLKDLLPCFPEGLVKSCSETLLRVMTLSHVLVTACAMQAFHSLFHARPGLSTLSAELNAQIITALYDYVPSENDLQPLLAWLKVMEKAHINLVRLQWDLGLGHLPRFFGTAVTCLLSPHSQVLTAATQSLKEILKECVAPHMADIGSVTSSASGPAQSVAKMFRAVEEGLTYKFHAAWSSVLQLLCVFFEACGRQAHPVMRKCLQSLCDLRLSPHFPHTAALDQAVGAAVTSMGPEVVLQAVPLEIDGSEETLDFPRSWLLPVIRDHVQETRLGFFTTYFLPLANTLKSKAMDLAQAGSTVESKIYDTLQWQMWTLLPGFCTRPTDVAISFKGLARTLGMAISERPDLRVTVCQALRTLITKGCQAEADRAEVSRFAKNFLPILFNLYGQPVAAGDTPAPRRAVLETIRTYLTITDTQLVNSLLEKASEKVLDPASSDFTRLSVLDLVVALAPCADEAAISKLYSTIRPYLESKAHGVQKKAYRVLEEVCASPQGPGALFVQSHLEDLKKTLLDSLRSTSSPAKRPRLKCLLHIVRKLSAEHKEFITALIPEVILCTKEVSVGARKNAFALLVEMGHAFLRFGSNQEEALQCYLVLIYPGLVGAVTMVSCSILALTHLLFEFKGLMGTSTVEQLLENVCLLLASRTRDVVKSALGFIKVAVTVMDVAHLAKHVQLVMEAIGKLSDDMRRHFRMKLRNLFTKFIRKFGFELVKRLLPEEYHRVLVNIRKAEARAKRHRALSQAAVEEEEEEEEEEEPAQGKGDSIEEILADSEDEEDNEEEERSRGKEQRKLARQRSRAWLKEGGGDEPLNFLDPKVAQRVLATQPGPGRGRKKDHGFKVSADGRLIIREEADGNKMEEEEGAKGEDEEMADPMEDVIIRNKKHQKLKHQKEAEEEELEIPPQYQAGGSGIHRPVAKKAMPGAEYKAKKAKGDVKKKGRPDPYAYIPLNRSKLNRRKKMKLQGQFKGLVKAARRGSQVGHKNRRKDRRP
Procedure: (§1) Cells were plated in 10-cm cell culture dishes and grown to 60-80% confluency. For each condition, two biological replicates were harvested for co-IP. Cells were washed with PBS and 4 mL of lysis buffer (20 mM HEPES, 1% Triton X-100, 150 mM NaCl, 1 mM EDTA, and 10% glycerol) containing protease inhibitor cocktail was added. Cells were scraped and lysate was incubated at 4° C. under rotary agitation for 1 h. Lysate was centrifuged at 14,000×g for 10 min at 4° C. Supernatant was transferred to a new tube and an aliquot was taken as the input. […] For Western blots, 10 μg/mL Chicken Anti-FLAG (Aves labs ET-DY100) and IgY control (R&D Systems AB-101-C) antibodies were biotinylated (Thermo Fisher Scientific 90407) and added to the respective conditions. Lysates with antibodies were incubated at 4° C. under rotary agitation overnight. For each mL of lysate, 50 μL of Pierce Protein A/G Magnetic Beads (Mass spectrometry; Thermo Fisher Scientific 88803) or Pierce Streptavidin Magnetic Beads (Western blot; Thermo Fisher Scientific 88817) was washed twice with lysis buffer. Lysates with antibodies were added to the beads and incubated at 4° C. under rotary agitation for 4 h. Beads were washed with lysis buffer 3 times and resuspended in lysis buffer for storage.
(§2) Magnetic beads were resuspended in 100 mM Tris pH 7.8, reduced, alkylated and digested with trypsin at 37° ° C. overnight. This solution was subjected to solid phase extraction to concentrate the peptides and remove unwanted reagents followed by injection onto a Shimadzu HPLC with fraction collector. Eight fractions were collected and after concentration were injected on a Waters NanoAcquity HPLC equipped with a self-packed Aeris 3 μm C18 analytical column 0.075 mm by 20 cm, (Phenomenex). Peptides were eluted using standard reverse-phase gradients. The effluent from the column was analyzed using a Thermo Orbitrap Elite mass spectrometer (nanospray configuration) operated in a data dependent manner for 54 minutes. The resulting fragmentation spectra were correlated against the known database using Proteome Discover 1.4 (Thermo Fisher Scientific).

HADHA = target: T2, HADHA (human, UniProt P40939 37-763)
T2 construct: also called NP_000173.2
Procedure: as §1, §2

NPM1 = target: T3, NPM1 (human, UniProt P06748 1-294)
T3 construct: also called NP_001341935.1 (+1)
Procedure: as §1, §2

RPL9 = RPL9 (human, UniProt P32969 1-192)
Procedure: as §1, §2

TOR1AIP2 = target: T4, TOR1AIP2 (human, UniProt Q8NFQ8 2-470)
T4 construct: also called NP_001336864.1 (+1)
Procedure: as §1, §2

SDF4 = target: T5, SDF4 (human, UniProt Q9BRK5 37-362)
T5 construct: also called NP_057260.2 (+2)
T5 sequence (looked up): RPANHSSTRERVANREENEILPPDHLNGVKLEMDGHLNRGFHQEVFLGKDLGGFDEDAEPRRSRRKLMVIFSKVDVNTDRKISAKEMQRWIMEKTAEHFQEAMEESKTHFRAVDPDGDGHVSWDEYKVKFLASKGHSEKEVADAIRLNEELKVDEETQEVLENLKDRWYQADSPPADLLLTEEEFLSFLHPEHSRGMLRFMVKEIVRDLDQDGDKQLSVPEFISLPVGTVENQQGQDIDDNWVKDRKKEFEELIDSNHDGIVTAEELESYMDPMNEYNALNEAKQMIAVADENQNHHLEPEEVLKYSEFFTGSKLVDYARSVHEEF
Procedure: as §1, §2

RPS4X = RPS4X (human, UniProt P62701 2-263)
Procedure: as §1, §2

Measured: co-IP mass spectrometry count

T2 sequence (P40939 37-763 limits assumed): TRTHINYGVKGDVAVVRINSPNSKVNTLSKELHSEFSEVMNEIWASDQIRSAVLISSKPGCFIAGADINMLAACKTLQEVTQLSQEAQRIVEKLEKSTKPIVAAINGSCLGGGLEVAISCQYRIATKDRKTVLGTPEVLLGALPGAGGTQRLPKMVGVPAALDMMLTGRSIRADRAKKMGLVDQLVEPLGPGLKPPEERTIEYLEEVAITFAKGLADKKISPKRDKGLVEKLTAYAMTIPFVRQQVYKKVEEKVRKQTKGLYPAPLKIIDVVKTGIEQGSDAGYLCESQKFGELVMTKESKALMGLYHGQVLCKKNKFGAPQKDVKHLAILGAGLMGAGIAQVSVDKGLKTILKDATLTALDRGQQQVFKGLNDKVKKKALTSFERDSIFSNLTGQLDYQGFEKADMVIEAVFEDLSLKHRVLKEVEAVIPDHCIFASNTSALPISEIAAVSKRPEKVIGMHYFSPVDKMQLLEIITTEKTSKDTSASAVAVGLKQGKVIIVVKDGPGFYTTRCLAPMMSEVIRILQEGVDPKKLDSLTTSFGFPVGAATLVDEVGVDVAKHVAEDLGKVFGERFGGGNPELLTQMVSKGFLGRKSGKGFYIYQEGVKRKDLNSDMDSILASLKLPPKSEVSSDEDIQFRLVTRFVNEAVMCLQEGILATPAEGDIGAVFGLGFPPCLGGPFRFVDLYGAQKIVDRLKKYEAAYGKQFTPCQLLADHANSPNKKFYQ
T4 sequence (Q8NFQ8 2-470 limits assumed): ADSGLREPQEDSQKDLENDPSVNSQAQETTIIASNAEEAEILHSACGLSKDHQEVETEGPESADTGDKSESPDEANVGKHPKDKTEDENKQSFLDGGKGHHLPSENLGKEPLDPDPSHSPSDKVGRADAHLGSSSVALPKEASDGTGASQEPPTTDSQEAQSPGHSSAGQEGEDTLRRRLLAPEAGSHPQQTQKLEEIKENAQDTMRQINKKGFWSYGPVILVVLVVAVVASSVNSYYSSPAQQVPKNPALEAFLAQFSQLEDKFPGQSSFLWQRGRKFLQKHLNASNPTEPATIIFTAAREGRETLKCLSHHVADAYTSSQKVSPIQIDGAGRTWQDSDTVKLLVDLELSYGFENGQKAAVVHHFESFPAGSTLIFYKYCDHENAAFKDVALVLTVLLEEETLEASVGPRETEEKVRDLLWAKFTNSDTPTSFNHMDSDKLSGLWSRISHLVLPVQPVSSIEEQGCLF
T3 sequence (P06748 whole entry): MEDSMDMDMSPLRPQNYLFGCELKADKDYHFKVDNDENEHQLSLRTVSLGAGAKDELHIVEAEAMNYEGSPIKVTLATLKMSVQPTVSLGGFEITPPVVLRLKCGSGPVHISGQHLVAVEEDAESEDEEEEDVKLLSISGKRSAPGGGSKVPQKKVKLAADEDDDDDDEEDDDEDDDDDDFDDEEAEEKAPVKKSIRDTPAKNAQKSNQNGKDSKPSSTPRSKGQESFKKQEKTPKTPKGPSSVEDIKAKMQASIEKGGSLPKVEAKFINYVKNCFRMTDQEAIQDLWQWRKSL

B1: N-terminal FLAG tagged B3GNT2 (enzyme, human, UniProt Q9NY97 1-397, looked up)
chain: MSVGRRRIKLLGILMMANVFIYFIMEVSKSSSQEKNGKGEVIIPKEKFWKISTPPEAYWNREQEKLNRQYNPILSMLTNQTGEAGRLSNISHLNYCEPDLRVTSVVTGFNNLPDRFKDFLLYLRCRNYSLLIDQPDKCAKKPFLLLAIKSLTPHFARRQAIRESWGQESNAGNQTVVRVFLLGQTPPEDNHPDLSDMLKFESEKHQDILMWNYRDTFFNLSLKEVLFLRWVSTSCPDTEFVFKGDDDVFVNTHHILNYLNSLSKTKAKDLFIGDVIHNAGPHRDKKLKYYIPEVVYSGLYPPYAGGGGFLYSGHLALRLYHITDQVHLYPIDDVYTGMCLQKLGLVPEKHKGFRTFDIEEKNKNNICSYVDLMLVHSRKPQEMIDIWSQLQSAHLKC
notes: Bait of the co-IP; pulled down with mouse anti-FLAG (Millipore Sigma F3165) from cell lysate; also called N-FLAG B3GNT2; N-term FLAG; not shown: N-terminal FLAG tag
14: RPS4X
0: all other assays above
